The data set deals with the molecule itself. The experiment in a line: negative stain electron microscopy; MtbSepFΔML 50 µM in 50 mM HEPES pH 7.4, 300 mM KCl, 10 mM MgCl2.

B1: M. tuberculosis SepFΔML (domain or fragment)
chain: EDGHPLSKITTLRPKDYSEARTIGERFRDGSPVIMDLVSMDNADAKRLVDFAAGLAFALRGSFDKVATKVFLLSPADVDVSPEERRRIAETGFYAYQ
notes: also called MtbSepFΔML
For the protein B1, the binding result is given as “binds”.

For the origin of these results see publication PMC7118173 (Nature Communications, 2020).
